Source: paper PMC6588359

Key:
amyloid-β40 (Aβ40) [1] = experiment: native MS; native nano-ESI-IMS-MS, positive ionization; Aβ40 alone or 1:1 mol/mol with Aβ_(16–22); samples incubated 5 min at 37°C without agitation, analysed immediately following mixing
amyloid-β40 (Aβ40) [2] = molecular target: amyloid-β40 (Aβ40)

Substance: Aβ_(16–22)
- percent heterodimers by total ion count (amyloid-β40 (Aβ40) [1]): 1.0 ± 0.5%

Substance: Aβ_(16–22) (peptide)
- ThT fluorescence: average t1/2 of Aβ40 aggregation with sonicated Aβ (16–22) fibrils (amyloid-β40 (Aβ40) [2]): 6.2 h
- ThT fluorescence: average t1/2 of Aβ40 aggregation with unfragmented (unsonicated) Aβ (16–22) fibrils (amyloid-β40 (Aβ40) [2]): 7.2 h

Substance: amyloid-β40 (Aβ40) (peptide)
- stoichiometry N (amyloid-β40 (Aβ40) [1]): 1
